Experimental data: article PMC4164784, “4E-BPs require non-canonical 4E-binding motifs and a lateral surface of eIF4E to repress translation” (Nature Communications, 2014)
“Also recorded” adds a separate entry of the source.

T1: SHN-eIF4E (full length, WT) (Drosophila melanogaster, UniProt P48598-2 1-248)
T1 construct: eIF4E, Drosophila melanogaster; also called SHN-tagged eIF4E; SNH-tagged eIF4E; not shown: Strep-NusA-His (SHN), N-terminal, kept
T1 sequence (looked up): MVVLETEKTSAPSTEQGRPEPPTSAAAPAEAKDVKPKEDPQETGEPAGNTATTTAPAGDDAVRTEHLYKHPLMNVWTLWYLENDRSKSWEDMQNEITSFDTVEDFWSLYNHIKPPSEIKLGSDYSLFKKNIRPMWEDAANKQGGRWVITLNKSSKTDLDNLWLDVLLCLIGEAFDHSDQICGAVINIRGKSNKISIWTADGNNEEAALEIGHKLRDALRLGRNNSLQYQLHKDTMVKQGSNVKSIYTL


Key:
[1] = target: T1, SHN-eIF4E (full length, WT); test: pull-down; preassembled complexes of SHN-eIF4E (WT or II-AA) with GST-eIF4G, GST-CUP, GST-Thor or GST-4E-T (coexpressed, purified on glutathione agarose) recovered on Strep-Tactin beads; conditions: both partners purified
[2] = tested on: eIF4E II-AA mutant (full length); test: GST/MBP pull-down of full-length eIF4E II-AA mutant, coexpressed in E. coli; format: binding, Drosophila melanogaster; conditions: recombinant CUP (311–440), Thor (full length), 4E-T (1–58) or eIF4G (578–650), WT or mutant, SDS–PAGE
Protocol: For the pull-down assays shown in Fig. 3 and Supplementary Fig. 6a, the full-length His6- or SHN-tagged eIF4E (WT or II-AA mutant) was coexpressed with GST or MBP-tagged protein fragments, including CUP (residues 311–440), Thor (full length), 4E-T (residues 1–58) or eIF4G (residues 578–650) in E. coli BL21 (DE3) STAR cells in autoinducing medium[44] overnight at 20 °C. The cells were resuspended in lysis buffer (20 mM Tris–HCl (pH 7.5), 100 mM NaCl, 1 mM DTT) supplemented with EDTA-free protease inhibitor (Roche) and lysed by sonication. The cleared lysates were incubated for 1 h with 20 μl of Protino Glutathione Agarose 4B beads (Macherey-Nagel) or amylose resin (New England Biolabs). The beads were washed three times with lysis buffer, and the bound proteins were eluted with lysis buffer containing 25 mM L-glutathione or 25 mM maltose for 15 min. The proteins were analyzed by 10–15% SDS–PAGE followed by Coomassie blue staining.

[3] = tested on: eIF4E II-AA (lateral surface mutant); test: Coimmunoprecipitation with HA-eIF4E II-AA in S2 cells; format: cell-based, Drosophila melanogaster; conditions: HA-eIF4E II-AA vs WT, western blot
Protocol: (§1) The coimmunoprecipitations assays were performed as previously described. For the pull downs using m^7GTP beads, 25 μl of immobilized γ-aminophenyl-m^7GTP (C10-spacer—Jena Bioscience) beads was added to the cell lysates and the mixtures were rotated for 1 h at 4 °C. The beads were washed three times with NET buffer (50 mM Tris (pH 7.4), 150 mM NaCl, 1 mM EDTA and 0.1% Triton X-100). The bound proteins were eluted with 2 × SDS–polyacrylamide gel electrophoresis (SDS–PAGE) sample buffer and analyzed by western blotting (WB). All of the WB experiments were developed with the ECL western blotting detection system (GE Healthcare) as recommended by the manufacturer. The antibodies used in this study are listed in Supplementary Table 2.

endogenous eIF4E = test: Coimmunoprecipitation / m7GTP pull-down with endogenous eIF4E in S2 cell lysates; format: cell-based, Drosophila melanogaster; conditions: western blot
Protocol: as §1
Thor and 4E-T) or HA-eIF4G and endogenous eIF4E in S2 cell lysates. The proteins were immunoprecipitated using a polyclonal anti-eIF4E antibody (α-4E). The pre-immune (Pre-I) serum and an HA-tagged version of MBP served as negative controls. The inputs (1%) and immunoprecipitates (10%) were analyzed by western blotting using anti-HA and anti-eIF4E antibodies. (b,c) The interaction of HA-tagged full length 4E-BPs (CUP, Thor and 4E-T) and eIF4G with endogenous eIF4E was analyzed by coimmunoprecipitation using anti-HA antibodies (b) or by pull-down using m7GTP-Sepharose beads (c). HA-MBP served as a negative control. The inputs (10%) and immunoprecipitates (30%) were analyzed by western blotting using anti-HA and anti-eIF4E antibodies. (d) Western blot showing the interaction of HA-Thor (full-length either wild-type or mutants) with endogenous eIF4E in S2 cells. The proteins were immunoprecipitated using anti-HA antibodies and analyzed as described in (b,c). (e) Western blot showing the interaction of HA-4E-T (residues 1–511, wild-type or mutants) with endogenous eIF4E. The proteins were immunoprecipitated using anti-HA antibodies and analyzed as described in (b,c). The size markers (kDa) are shown to the right of each panel. Mutants are described in Supplementary Table 1.

[4] = tested on: endogenous eIF4E and HA-tagged 4E-BPs in S2 cells; test: Immunofluorescence localization in S2 cells; format: cell-based, Drosophila melanogaster; conditions: for nuclear accumulation of endogenous eIF4E upon LMB (in words): S2 cells expressing 4E-BP or mutant; for nuclear accumulation of endogenous eIF4E upon LMB (in words) / nuclear accumulation of 4E-BP upon LMB (in words): LMB 100 nM, 12 h; for localization of endogenous eIF4E (in words): S2 cells overexpressing 4E-BP or mutant; for localization of endogenous eIF4E (in words) / localization of the 4E-BP (in words): −LMB; for nuclear accumulation of 4E-BP upon LMB (in words) / localization of the 4E-BP (in words): S2 cells; for localization of the 4E-BP (in words): steady-state
Protocol: S2 cells expressing HA-tagged versions of CUP, Thor and 4E-T or the indicated mutants were treated with Leptomycin B (100 nM; Sigma) or methanol as a control for 12 h. After the LMB treatment, the cells were allowed to adhere to poly-D-lysine–coated coverslips for 15 min and were fixed with 2% paraformaldehyde for 10 min. The cells were then permeabilized with 0.1% Triton X-100 in PBS (10 min) and stained with affinity-purified monoclonal anti-HA (Covance 1:1,000) and polyclonal anti-eIF4E (1:2,000) antibodies in PBS containing 1% BSA for 1 h. Alexa Fluor 594-labeled goat anti-rabbit and 488-labeled anti-mouse antibodies (Invitrogen) were used at dilutions of 1:1,000 and 1:2,000, respectively. The cells were mounted using Fluoromount-G (Southern Biotech). The images were acquired at room temperature using a confocal microscope (TCS SP2; Leica) that was fitted with a Plan-Apochromat × 100 NA 1.40 oil immersion objective and a series of three photomultipliers (Hamamatsu Photonics) controlled with the Leica confocal software (version 2.61). The images were prepared using Photoshop (Adobe). […]
Thor) independent experiments. […] Confocal fluorescent […]
micrographs of fixed S2 cells expressing HA-4E-T and GFP-Tral. The localization of HA-4E-T was determined by indirect immunofluorescence using an anti-HA antibody. The merged pictures show the HA signal in red and the GFP-Tral signal in green. Bar: 5 μm.

[5] = tested on: firefly luciferase (F-Luc) reporter in S2 cells; test: Translation repression assay, F-Luc reporter in S2 cells; format: cell-based, Drosophila melanogaster
Protocol: S2 cells were transfected in 6-well plates using Effectene transfection reagent (Qiagen) according to the manufacturers protocol. The transfection mixtures contained: 0.1 μg of F-Luc reporter plasmid (F-Luc-V5), 0.3 μg of control RNA reporter, and increasing amounts of plasmids expressing HA-CUP (fragment 1–402; 0.05–0.2 μg) and HA-Thor (full length, 0.1–0.5 μg). The plasmids expressing the corresponding mutants or the HA peptide control were transfected at the highest concentration. In all the experiments, the cells were collected three days after transfection. The F-Luc activity was measured using the Dual-Luciferase reporter assay system (Promega). The northern blotting was performed as previously described. The F-Luc mRNA levels were determined by northern blotting and were normalized to those of the control RNA. The normalized F-Luc mRNA levels were then used to normalize the F-Luc activity, to obtain translation efficiencies.

Molecule | binding result [1] | binding to eIF4E II-AA mutant (in words) [2] | association with eIF4E II-AA (in words) [3] | interaction with endogenous eIF4E (in words) (endogenous eIF4E) | nuclear accumulation of endogenous eIF4E upon LMB (in words) [4] | localization of endogenous eIF4E (in words) [4] | nuclear accumulation of 4E-BP upon LMB (in words) [4] | localization of the 4E-BP (in words) [4] | repression of F-Luc reporter expression (in words) ([5]; coexpression (HA-CUP 1–402 0.05–0.2 μg, HA-Thor 0.1–0.5 μg plasmid; mutants at highest), 3 days, F-Luc activity normalized to mRNA, three independent experiments) | effect on mRNA upon overexpression (in words) ([5]; overexpression, C.I. and E.I., unpublished results)
GST-Thor (full length) (natural protein, Drosophila melanogaster, UniProt Q9XZ56 1-117, looked up, Thor, Drosophila melanogaster; source: E. coli BL21 (DE3) STAR, coexpressed with SHN-eIF4E, complex purified on glutathione agarose) MSASPTARQAITQALPMITRKVVISDPIQMPEVYSSTPGGTLYSTTPGGTKLIYERAFMKNLRGSPLSQTPPSNVPSCLLRGTPRTPFRKCVPVPTELIKQTKSLKIEDQEQFQLDL | binds | – | – | – | – | – | – | – | – | –
Thor: Dm Thor full length (1–117), Q9XZ56, ortholog of 4E-BP1–3 (protein, left off: GFP, end not stated, kept) MSASPTARQAITQALPMITRKVVISDPIQMPEVYSSTPGGTLYSTTPGGTKLIYERAFMKNLRGSPLSQTPPSNVPSCLLRGTPRTPFRKCVPVPTELIKQTKSLKIEDQEQFQLDL | – | pulled down comparable amounts of WT and mutant eIF4E | disrupted the association | interacted with endogenous eIF4E | endogenous eIF4E accumulated in the nucleus | evenly distributed in the cytoplasm | partial nuclear accumulation | distributed evenly throughout the cytoplasm | inhibited the expression of the F-Luc reporter in a dose-dependent manner | –
4E-T: Dm 4E-transporter (1–1010), Q8IH18; residues 1–58 in pull-down assays (protein, left off: GFP, end not stated, kept, Dm 4E-transporter (1–1010), Q8IH18; residues 1–58 in pull-down assays) MDTSKISARYSKVDLLALRYEGKSRQRPQCSTRLELQTLGFWKINLNTAALTVSSAYSNQNKNRLSPEADNSSLICSNSSSISSRRAMRNRERANNYYQRFVPTDSLLISGEDKDKDALSHGQPYKLNIIDHRSISSSHLMPAFAKRRFVISKGSNSEESNEGINTCASKGKAASSPSRKGSELDTAETCLNFVQPDHDQCMSSSPTFSTSRQERRIGSGRLLPRSDNWDYKNEKTVEASIENEKETSPNGSGSTSSLNQHNQSQHRSRTFSGRLVERVPEVTDRRFQYDSKKSFDRQGINNRRISGKEPFSTQSRSKRGNSYLIHEEPEWFSAGPKSQLETIDLHGFEDLEKNEERSVTEDKNNQIQQLDKNLDAQASKDEASMRNSNDSLNFREVIPSDEKKHTDENVVTSIQNSTDLGHPNKNKPIQMQPSQNPESEFNFDAFLNMHPLDNSVLSNDETGKSDSKGTSRFSRWFRQKEAANNNEFPGFRESHAQEKRGIPSVKDLEAQMIKVDMRTDLINPIAGSLCQTVQMEKPIARDTEAFKKLLQQLGSQARQHHPCNDDCRTINLSNIANHVHLESKLHQKINDGHLQQPELSVNVPTMPTSSHVFLQKRLEIQHLIQRLHCGDVSHDFLEKELDNPSTPAATKDVIATVLNEYSHSKRNPVVTGDPNIFTQQSFLQPQSVHQHYSQELHSQNTANHTINQLISHGNSPTPLAFTPTSVLRKMTADKDTQSPSTYCQNPQYHVHQQNAKQVGTRENVLEPQLTATMAVQPRMILGGGNFAIGQNNQHLSPNMSQSRNQQVLKWTSGNMQMVHGKTFGRPILKGGLNSMPHSNSALPFTAHKIEMQPIHQPHLQQQQHRFKAVQSVESNLNTESVHQNITSPVGWHQLYMQHQQQHHHTRQQLSQRVIYGEMHRQSNPQMSPPVPGFSDSSDSGNVIKANSLTSPSYQRDERISSPTNQLAQWFSPELLAKASAGKLPLLNVNQALSLEEFERSIQHSSGVVHN | – | pulled down comparable amounts of WT and mutant eIF4E | disrupted the association | interacted with endogenous eIF4E | endogenous eIF4E accumulated in the nucleus | detected in P-bodies | nuclear accumulation | localizes to P-bodies; also recorded: accumulated in cytoplasmic foci, which correspond to P-bodies | – | caused mRNA degradation when overexpressed
